{"source": "paper PMC9835395", "molecular_target": "albumin (on albumin-functionalized agarose resin) (UniProt P07724)", "sequence (P07724 25-608)": "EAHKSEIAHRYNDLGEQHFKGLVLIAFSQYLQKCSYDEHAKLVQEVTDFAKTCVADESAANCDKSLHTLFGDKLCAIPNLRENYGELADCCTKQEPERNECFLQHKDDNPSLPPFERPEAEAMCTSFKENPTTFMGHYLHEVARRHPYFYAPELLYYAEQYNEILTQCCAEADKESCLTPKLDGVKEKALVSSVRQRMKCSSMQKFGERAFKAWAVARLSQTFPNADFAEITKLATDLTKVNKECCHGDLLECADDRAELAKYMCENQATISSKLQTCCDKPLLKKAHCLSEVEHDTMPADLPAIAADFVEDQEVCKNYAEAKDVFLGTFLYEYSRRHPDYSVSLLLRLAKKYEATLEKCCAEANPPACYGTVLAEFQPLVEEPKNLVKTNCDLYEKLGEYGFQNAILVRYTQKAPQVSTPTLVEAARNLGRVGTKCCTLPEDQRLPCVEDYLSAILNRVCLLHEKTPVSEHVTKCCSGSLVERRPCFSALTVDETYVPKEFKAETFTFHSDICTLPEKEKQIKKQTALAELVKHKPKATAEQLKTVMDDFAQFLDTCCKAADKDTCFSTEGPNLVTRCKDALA", "test": "pull-down; AF647-labelled eOD or amph-eOD incubated with albumin-functionalized agarose resin for 2 hours at 37°C; resin separated and protein remaining in solution measured", "data": [{"substance": "amph-eOD (eOD-GT8 with N-terminal cysteine and C-terminal PADRE, conjugated to PEG2K-DSPE)", "values": [{"measurement": "percent of added protein bound to the resin", "value": 60, "unit": "%"}]}]}
